The target in experiment [1] is tobacco ortholog of the transcription repressor HDA19 (tobacco). Briefly: cell-based or functional assay.
Experiment [2] concerns the target GAL4 DB-HDA19 fusion (pDBLeu-HDA19), expressed in MaV203 yeast (yeast; Arabidopsis thaliana) (UniProt P04386). Nature of the experiment: cell-based or functional assay.
[3] abbreviates: scale: % further reduction relative to the other mutants.
Where [4] appears, read: scale: % reduction relative to full-length bnKCP1.

From patent publication US20050278809A1 come the findings set out here.

Regarding “GAL4BD-BnSCL1 fusion protein (effector plasmid GAL4-BnSCL1), expressed transiently in tobacco leaves (from UniProt P04386 1-147)”, the GUS gene expression (transient assay in bombarded tobacco leaves, fluorometric) in experiment [1] is 50 % decrease. Turning to “GAL4 AD-BnSCL1^1-145 fusion (pPC86-BnSCL1^1-145), expressed in MaV203 yeast”, the β-galactosidase activity (lacZ reporter, yeast two-hybrid, CPRG) (% reduction relative to wild type BnSCL1) in experiment [2] is over 50. Moreover, the β-galactosidase activity (lacZ reporter, yeast two-hybrid, CPRG) in experiment [2] (setting [3]) is over 50. For the substance “GAL4 AD-BnSCL1^1-217 fusion (pPC86-BnSCL1^1-217), expressed in MaV203 yeast”, in experiment [2], the β-galactosidase activity (lacZ reporter, yeast two-hybrid, CPRG) (% reduction relative to wild type BnSCL1) was over 50. Still for that read-out and setting: the figure for “GAL4 AD-BnSCL1^146-358 fusion (pPC86-BnSCL1^146-358), expressed in MaV203 yeast” is over 50.

“GAL4 AD-bnKCP1^1-80 fusion (pPC86-bnKCP1^1-80), expressed in MaV203 yeast (from UniProt Q84U09 1-80)” displayed a β-galactosidase activity (lacZ reporter, yeast two-hybrid, CPRG) in experiment [2] (setting [4]) of over 50. For the substance “GAL4 AD-BnSCL1^1-358 fusion (pPC86-BnSCL1^1-358), expressed in MaV203 yeast”, in experiment [2], the β-galactosidase activity (lacZ reporter, yeast two-hybrid, CPRG) (% reduction relative to wild type BnSCL1) is over 50. “GAL4 AD-BnSCL1^218-438 fusion (pPC86-BnSCL1^218-438), expressed in MaV203 yeast”: the β-galactosidase activity (lacZ reporter, yeast two-hybrid, CPRG) (% reduction relative to wild type BnSCL1) in experiment [2] was over 50. Also, the β-galactosidase activity (lacZ reporter, yeast two-hybrid, CPRG) in experiment [2] (setting [3]) is over 50.

In experiment [2] (setting [4]), “GAL4 AD-bnKCP1^1-160 fusion (pPC86-bnKCP1^1-160), expressed in MaV203 yeast (from UniProt Q84U09 1-160)” yielded a β-galactosidase activity (lacZ reporter, yeast two-hybrid, CPRG) of over 50. Substance “GAL4 AD-BnSCL1^1-261 fusion (pPC86-BnSCL1^1-261), expressed in MaV203 yeast” returned a β-galactosidase activity (lacZ reporter, yeast two-hybrid, CPRG) (% reduction relative to wild type BnSCL1) in experiment [2] of over 50.
